In patent US10301358B2, “Collagen imaging compositions” (Collagen Medical, LLC, priority 2015, dated 2019):
Entries after “also recorded” stand apart in the source; their conditions may differ. Bridge positions count the residues as written; N and C are the ends. Ends that are not written are not given here.

Columns and labels:
[1] = Uptake into fibrotic liver tissue, bile duct ligated (BDL) rats; type: in vivo, Sprague-Dawley rats; conditions: ~7.5 μmol/kg, sacrifice after 90 min, BDL vs sham
Method: Bile duct ligated (BDL) rats are selected to assess the uptake of the complexes in fibrotic liver tissue as compared to sham operated animals. In this model, the common bile duct is surgically tied off and the resultant cholestasis results in fibrosis around the bile ducts. Laparotomy is performed in Sprague-Dawley rats with double ligation of the common bile duct with a section between the two ligatures (2-3% isoflurane anesthesia). […] Fibrosis is evident 15 days after ligation and increases with time up to 30 days after ligation, providing defined endpoints for imaging of moderate and severe fibrosis.
Studies are conducted by injecting Compound ID. No. 1 at a dose ˜7.5 μmol/kg. After 90 min, the animals are sacrificed and the 4 liver lobes and abdominal muscle are removed and the manganese concentration quantified by ICP-MS and collagen content quantified using hydroxyproline concentration.

[2] = Myocardial perfusion imaging, canine LAD occlusion/reperfusion model; type: in vivo
Method: To mimic severe ischemia, a canine model is used in which an inflatable variable vascular occluder is placed around the left anterior descending coronary artery (LAD) to allow occlusion and reperfusion. Imaging is performed on a 3T clinical scanner 4 days after implantation of the occluder. The conventional saturation recovery pulse sequence for stress perfusion imaging is compared with a segmented inversion method. The purpose of the segmented inversion method is to leverage the steady-state properties of Compound ID No. 1. This segmented inversion recovery pulse sequence provides greater T1 weighting, higher spatial resolution, and greater myocardial tissue contrast. Additionally, since imaging is delayed, the entire heart can be imaged. After baseline MRI scanning, the balloon is inflated. […]
To assess relative perfusion, labeled microspheres are administered at 3 timepoints in the study. […] At autopsy under ultraviolet light, the hypo-perfused myocardium is differentiated from normal myocardium due to the lack of fluorescence in the hypo-perfused tissue. Based on the fluorescence, a sample of the ischemic territory and a sample of the remote myocardium are taken for ex vivo analysis. These tissue samples are weighed, digested in nitric acid, and analyzed for the elements La, Au, Lu (the three microsphere injections) and manganese (Compound ID No. 1) using ICP-MS. […]

Pharmacokinetics (Rat) = type: in vivo, Sprague Dawley rats; conditions: 1.3 umol/kg bolus IV, plasma sampled 2-90 minutes post-injection, ICP-MS
Method: Compound ID No. 1 is formulated at pH 7.5 (TRIS buffer) and administered to Sprague Dawley rats (n=2) at dose of 1.3 umol/kg using a bolus IV injection. Plasma is sampled at 2, 5, 15, 30, and 90 minutes post-injection and analyzed for manganese content using ICP-MS.

collagen = biological target: T1, collagen (Rattus norvegicus, UniProt P02454+P02466); assay: Uptake into fibrotic myocardial tissue, rat model of healed myocardial infarction; type: in vivo, Sprague Dawley rats; conditions: ~1 umol/kg, 3 weeks following infarction, sacrifice 60 minutes post-injection, tissue manganese
T1 construct: from tissue; host or cells: rat heart (normal and infarcted myocardium), in vivo
T1 sequence (P02454 152-1207): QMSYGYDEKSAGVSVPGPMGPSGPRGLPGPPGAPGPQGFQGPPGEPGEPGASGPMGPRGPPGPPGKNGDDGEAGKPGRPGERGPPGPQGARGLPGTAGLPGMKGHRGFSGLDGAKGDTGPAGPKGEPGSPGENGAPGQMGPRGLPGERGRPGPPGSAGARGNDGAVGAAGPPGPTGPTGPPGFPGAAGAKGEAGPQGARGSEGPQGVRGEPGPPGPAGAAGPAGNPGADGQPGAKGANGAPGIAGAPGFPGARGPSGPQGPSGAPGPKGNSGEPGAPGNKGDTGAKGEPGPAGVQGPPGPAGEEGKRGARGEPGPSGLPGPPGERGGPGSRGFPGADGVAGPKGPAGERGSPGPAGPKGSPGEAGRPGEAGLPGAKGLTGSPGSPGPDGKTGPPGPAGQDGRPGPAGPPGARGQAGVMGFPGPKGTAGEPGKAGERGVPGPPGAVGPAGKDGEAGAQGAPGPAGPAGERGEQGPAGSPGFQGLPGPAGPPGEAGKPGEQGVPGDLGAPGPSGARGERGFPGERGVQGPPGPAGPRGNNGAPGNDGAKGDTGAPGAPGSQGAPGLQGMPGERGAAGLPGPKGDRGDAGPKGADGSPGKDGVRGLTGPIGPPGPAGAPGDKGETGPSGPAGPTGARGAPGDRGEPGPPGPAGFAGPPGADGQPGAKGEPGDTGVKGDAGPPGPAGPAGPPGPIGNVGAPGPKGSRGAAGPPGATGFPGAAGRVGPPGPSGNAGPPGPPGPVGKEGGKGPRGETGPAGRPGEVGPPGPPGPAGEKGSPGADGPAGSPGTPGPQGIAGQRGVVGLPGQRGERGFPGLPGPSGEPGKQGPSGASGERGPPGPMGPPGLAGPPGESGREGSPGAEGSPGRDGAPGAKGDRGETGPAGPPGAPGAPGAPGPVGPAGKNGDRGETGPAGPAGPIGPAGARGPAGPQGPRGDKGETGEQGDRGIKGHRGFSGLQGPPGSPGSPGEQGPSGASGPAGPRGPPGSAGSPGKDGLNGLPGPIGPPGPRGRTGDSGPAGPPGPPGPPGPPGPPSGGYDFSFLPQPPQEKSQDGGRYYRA
T1 sequence (P02466 86-1125): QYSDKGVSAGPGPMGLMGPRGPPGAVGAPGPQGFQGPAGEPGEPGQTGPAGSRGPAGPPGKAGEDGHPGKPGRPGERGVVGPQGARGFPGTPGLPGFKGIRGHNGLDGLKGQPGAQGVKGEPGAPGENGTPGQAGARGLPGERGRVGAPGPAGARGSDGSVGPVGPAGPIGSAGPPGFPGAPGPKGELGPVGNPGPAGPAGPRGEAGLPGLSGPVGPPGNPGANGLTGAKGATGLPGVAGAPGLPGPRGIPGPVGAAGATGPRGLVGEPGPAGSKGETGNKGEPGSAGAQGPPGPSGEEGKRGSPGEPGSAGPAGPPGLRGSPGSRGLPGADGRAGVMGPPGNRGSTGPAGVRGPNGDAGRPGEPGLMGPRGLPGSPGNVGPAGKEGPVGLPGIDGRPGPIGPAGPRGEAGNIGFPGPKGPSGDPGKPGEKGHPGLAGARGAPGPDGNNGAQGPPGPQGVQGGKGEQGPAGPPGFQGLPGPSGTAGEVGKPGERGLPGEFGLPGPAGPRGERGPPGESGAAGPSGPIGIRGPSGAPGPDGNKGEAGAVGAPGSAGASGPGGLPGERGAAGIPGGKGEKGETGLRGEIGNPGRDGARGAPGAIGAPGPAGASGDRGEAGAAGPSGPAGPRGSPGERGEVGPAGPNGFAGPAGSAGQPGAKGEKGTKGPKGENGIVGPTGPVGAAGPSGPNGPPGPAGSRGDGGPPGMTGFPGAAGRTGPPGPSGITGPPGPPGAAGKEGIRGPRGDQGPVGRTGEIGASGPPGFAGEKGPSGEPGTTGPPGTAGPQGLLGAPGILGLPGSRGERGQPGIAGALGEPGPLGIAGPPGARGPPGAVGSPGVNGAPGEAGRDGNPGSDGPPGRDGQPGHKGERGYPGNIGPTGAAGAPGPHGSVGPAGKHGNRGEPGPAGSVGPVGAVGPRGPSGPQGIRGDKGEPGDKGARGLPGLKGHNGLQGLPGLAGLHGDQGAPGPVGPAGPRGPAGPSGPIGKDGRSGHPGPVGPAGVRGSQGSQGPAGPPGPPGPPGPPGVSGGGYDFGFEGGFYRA
Method: Tissue samples from normal myocardium and infarcted myocardium are analyzed for manganese and hydroxyproline (collagen) content.

Row | Substance | uptake into fibrotic liver tissue (manganese vs hydroxyproline) [1] | MR visualization of myocardial perfusion defect ([2]; 7.5 μmol/kg i.v. bolus one minute after coronary artery occlusion, 3T scanner, listed as 1) | Mn concentration in ischemic vs normal myocardium ex vivo ([2]; 7.5 μmol/kg i.v., sacrifice ca. 120 minutes post injection, ICP-MS) | pharmacokinetic profile (plasma manganese content) (Pharmacokinetics (Rat)) | uptake in normal vs. scarred myocardium (collagen)
1 | Compound ID No. 1: MnCDTAGA conjugate of cyclic collagen binding peptide SEQ ID No. 1 (G-K-W-H-C-T-T-K-F-P-H-H-Y-C-L-Y-Bip), amidated C-terminus; FIG. 1 (GKWHCTTKFPHHYCLY; MnCDTAGA conjugate; cyclic disulfide; C-terminal amide) | consistent with uptake of Compound ID No. 1 into fibrotic-rich liver tissue | readily visualized; also recorded: positive image contrast in the normally perfused myocardium | preferential deposition in normal vs ischemic cardiac tissue | rapid initial blood clearance | greater binding in fibrotic cardiac tissue as compared with normal myocardial tissue
2 | Compound ID No. 2: MnCDTAGA linked to terminal nitrogen and lysine epsilon amino groups of peptide SEQ ID No. 2, C-terminus —NH2 amide; FIG. 2 (MnCDTAGA-K(MnCDTAGA)WHCTTK(MnCDTAGA)FPHHYCLY; disulfide 4-13 (inferred); not fully specified (C-terminus); printed as K-W-H-C-T-T-K-F-P-H-H-Y-C-L-Y-Bip) |  |  |  |  | greater binding in fibrotic cardiac tissue as compared with normal myocardial tissue
3 | Compound ID No. 4: MnCDTAGA linked to terminal nitrogen or lysine epsilon amino groups of peptide SEQ ID No. 4, C-terminus —NH2 amide; FIG. 4 (KWHCYTKFPHHYCVY; disulfide 4-13 (inferred); not fully specified (C-terminus); printed as K-W-H-C-Y-T-K-F-P-H-H-Y-C-V-Y-Bip; also: MnCDTAGA on N-terminal amine or lysine ε-amino group) |  |  |  |  | greater binding in fibrotic cardiac tissue as compared with normal myocardial tissue
